According to patent US20230374078A1:

Molecular target: variant of repaired and stabilized Du422 construct (HIV161818) with the additional K655I substitution (HIV-1 clade C strain Du422)
Assay: assay not named in the sentence (data not shown); trimer yield by AlphaLISA elsewhere

For mAb PGT145 (antibody), the trimer yield (PGT145 AlphaLISA signal), factor over the variant of SEQ ID NO: 25 without K655I was 1.3 fold.
